In the nanobody polyreactivity screen of Harvey et al. (2022):

Assay: yeast display, Sf9 membrane polyspecificity reagent, FACS + sequencing; frameworks hold sequencing errors
Method in brief: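 Galactose induction of a Saccharomyces cerevisiae BJ5465 synthetic nanobody display library ran 36–48 hours. The cells were then stained for 1 hour at 4 °C with 10% biotinylated, detergent-solubilized Sf9 membrane reagent, pulled down on streptavidin microbeads and FACS-sorted into low and high (top ~1%) gates on expression and reagent-binding fluorescence. Labels for polyreactivity follow the gate of origin.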

| Sequence | polyreactivity (PSR sort gate) |
| --- | --- |
| QVQLVESGGGLFQAGGSLRLSCAASGRTFDVYDMGWYRQAPGKERELVAAITWSGGSTYYADSVKGRFTISRDNAKNTVYLQMNSLKPEDTAVYYCAAGYYYFWTYDYWGQGTQVTVSS | low polyreactivity |
| QVQLVESGGGLVQAGGSLRLSCASSGFTFSDYAMAWYRQAPGKERELVADISTSGGSTYYADSVKGRFTISRDNAKNTVYLQMNSLKPEDTAVYYCAVRPGYYWGYWPRFGYWGQGTQVTVSS | low polyreactivity |
| QVQLVESGGGLVQAGGSLRISCAASGIILSDNAMGWYRQAPGKEREFVAAITGAGGSTYYADSVKGRFTISRDNAKNTVYLQMNSLKPEDTAVYYCAAESYPLSYSSATLSPSYEYWGQGTQVTVSS | low polyreactivity |
| QVQLVESGGGLVQAGGSLRLSCAASGIILPYYVMGLYRQAPGKERELVAAISSGGRTYYADSVKGRFTISRDNAKNTVYLQMNSLKPEDTAVYYCNAYFTGKWYDYWGQGTQVTVSS | high polyreactivity |
| QVQLVESGGGLVQAGGSLRLSCAASGLIFAIYAMGWYRKAPGKERELVAAISSGGGRTYYADSVKGRFTISRDNAKNTVYLQMNSLKPEDTAVYYCNARYRTVRSGGEYWVLMDYWGQGTQVTVSS | high polyreactivity |
| QVQLVESGGGLVQAGGSLRLSCAASGITFSRNAMGWYRQAPGKERELVAVISTRGGRTYYADSVKGRFTISRDNAKNTFYLQMNSLKPEDTAVYYCAASPDPYWRRMDYWGQGTQVTVSS | high polyreactivity |
| QVQLLESGGGLVQAGGSLRLSCAASGRTFAWNAMGWYRQAPGNERELVARLRSSGSTYYADSVKGRFTISRDNAKNTVYLQMNSLKPEDTAVYYGAKKWGWFPVYYWGQGTQVTVSS | high polyreactivity |
| QVQLVESGGGLVQAGGSLRLSCAASGFIFSYYAMGWYRQAPGKERELVAAISSGGSTYYADSVKGRFTISRDNAKNTVYLQMNSLKPEDTAVYYCAAAIWYIKLYFVRRTEHGYWGQGTQVTVSS | low polyreactivity |
| QVQLVESGGGLVQAGGSLRLSCAASGSILDSNAMGWYRQAPGKERELVAAITSGGSTYYADSVKGRFTISRDNAKNTVYLQMNSLKPEDTAVYFCAAAFLGYGAVQPSYEGGYWGQGTQVTVSS | low polyreactivity |
| QVQLVESGGGLVQAGGSLSLSCAASGRIFPYNDLGWYRQAPGKERELVADINSGDSTNYADSVKGRFTISRDNAKNTVYLQMNSLKPEDTAVYYCAAGYVRYPGVIDEYWGQGTQVTVSS | low polyreactivity |
| QVQLVESGGGLVQAGGSLRLSCAASGITFRKYAMGWYRKAPGKERELVAAISVSGGSTYYADSVKGRFTISRDNAKNTVYLQMNSLKPEDTAVYYCATGRSTDKGYYYWGQGTQVTVSS | high polyreactivity |
| QVQLVESGGGLVQAGGSLRLSSAASGSTFGYYAMGWYRQPPGKERELVAAISSSAGTTYYADSVKGCFTISRDNAKNTVYLQMNSLKPEDTAVYYCAADAVSGREYWGQGTQVTVST | low polyreactivity |
| QVQLVESGGGLVQAGGSLRLSCAASGRIFYGYTMGWYRQAPGKERELVAAISSSGGSTYYADSVKGRFTISRDNAKNTVYLQMNSLIPEDTAVYYCAAYVPYSPYHVEFNYWGQGTQVTVSS | high polyreactivity |
| QVQLVESGGGIVQAGGSLRLSCAASGFTISRNTMGWYRQAPGKEREFVARISAYGGSTYYADSVKGRFTISRDNAKNSVYLQMNSLKPVDTAVYYCAAVYRRYGGSRYDYWGQGTQVTVSS | high polyreactivity |
| QVQLVESGGGLVQAGGSLRLSCAASGFTFYRNAMGWYRQAPGKEREVVAAISISGGSTYYADSVKGRFTISRDNAKNTVYLQMNSLKPEDTAVYYCAAYYYRDRYSRVKVTYWGLGTQVTVSS | high polyreactivity |
| QVQLVESGGGLVQAGGSLRLSCAASGSTFANYAMGWYRQAPGKERELVAVISWGGGSTYYADSVKGRFTISRDNAKNTVYLQMNSLKPEDTAVYYCAAVYDEYQTTHEYDYWGQGTQVNVSS | low polyreactivity |
| QVQLVESGGGLVQAGGSLRLSCAASGFTIWRNDMGWYRQAPGKERELVAVISTAGRTYYADSVKGRFTISRDNAKITVYLQMNSLKPEDTAVYYCAKRSYSKDQPRYGYWGQGTQVTVSS | low polyreactivity |
| QVQLVESGGGLVQAGGSLRLSCAASGSTFVAYAMGWYRQAPGKERELVAAITYSGGRTYYADSVKGRFTISRDNAKNTVYLQMNSLKPEDTAVYSCAATGVFRDEYWGQGTQVTVSS | low polyreactivity |
| QVQLVESGGGLVQAGGSLRLSCAASGRTFYYYAMGWYRPAPGKERELVAAITSRGGSTYYADSVTGRFTISRDNAKNTVYLQMNSLKPEDTAVYYCAAEYWSTYWQSELDYWGQGTQVTVSS | high polyreactivity |
| QVQLVESGGGLVQAGGSLRLSCAASGFTFSPNAMGWYRQAHGKESELVAAIDWSGDRTYYADSVKGRFTISRDNAKKTVYLQINSLKPEDTAVYYCNVVRRSPGDYTYYYWGQGTQVTVSS | low polyreactivity |
| QVQLVESGGGLVQAGGSLRLSFAASGSTFYYHAMGWYRQAPGKERELVAAIRSTGSTNYADSVKGRFTISRDNAKNTVYLQMNSLKPEDTAVYYCAARIRRTRGYNYWGQGTQVTVSS | high polyreactivity |
| QVQLVESGGGLVQAGGSLRLSCAASGSIFWDYAMGWYRQSPGKERELVAAISGSGTSTYYADSVKGRFTISRDNAKNTVYLQMNSLKPEDTAVYYCAARIWTGRGRKLGNGYDYWGQGTQVTVSS | low polyreactivity |

| Sequence | polyreactivity (PSR sort gate) |
| --- | --- |
| QVQLVESGGGFVQAGGSLRLSCAASGRIFGPYAMGWYRQAPGKERELVAVITNSGSTNYADSVKGRFTISRDNAKNTVYLQMNSLKPEDTAVYYCNRVEGGAYGSNFDYWGQVTQVTVSS | high polyreactivity |
| QVQLVESGGGLVQAGGSLRLSCAASGGTFSRNVMGCYRPAPGKERELVSAISRRGSSTYYADSVKGRFTISRDNAKNTVFLQMNSLKPEDTAVYYCARDQFTGADEAGDDYWGQGTQVTVSS | high polyreactivity |
| QVQLVESGGGLVQAGGSLRLSCAASGFTFLYNAMGWYRQAPGKERELVASINSGGSTNYADSVKGRFTISRDNAKNTVYLQMNSLKPEDTAVYYCAADKGPLQRGFDYWGQGTQVTVSS | low polyreactivity |
| QVQLVESGGGLVQAGGRLRLSCAASGSIFGKYAMGWYRQAPGKERELVAAISKGGGRTSYADSVKGRFTISRDNAKNTVYLQMNSLKPEDTAVYYCNRYTQYRDRSDNHWGQGTQVTVSS | high polyreactivity |
| QVQLVESGGGLVQAGGSLRLSCAASGFIFSSNDMGWYRQAPGKERELVAAIDYSGGSTYYADSVKGRFTISRDNAKNTVYLQMNSLKPEDTAVYYCAATVYNPTDYYSPYYYWGQGTQVTGSS | low polyreactivity |
| QVQLVESRGGLVQAGGSLRLSCAASGSIFNANAMGWYRQAPGKEREIVAAITRAGGGTYYADSVKGRFTISRVNAKNTVYLQMNRLKPEDTAVYYCAREVFFYASTGQTYGYWGQGTQVTVSS | high polyreactivity |
| QLQLVESGGGLVQAGGSLRLSCAASGRIFRGYAMGWYRQAPGKERELVAAISGSGGSTYYADSVKGRFTISRDNAKNSVYLQMNSLKPEDTAVYYCAAEGRNYYGSYDYWGQGTQVTVSS | low polyreactivity |
| QVQLVESGGGLVQAGGSLRLSCAASGFTFKRYAMGWYRQAPGKERELVAAISWSGGSTYYADSVKGRFTISRDNAKNTVYLQMNSLKPEDTAVYYCAADGGSTEEYYYWGQGTQVTVSS | high polyreactivity |
| QVQLVESGGGLVQAGGSLRLSCAASGSTFVYYAMGWYRQAPGKERELVADISWSGGDTYYADSVKGRFTISRDNAKNTVYLQMNSLKPVDTAVYYCAAEWSTPSYVGFADGFEYWGQGTQVTVSS | low polyreactivity |
| QVQLEESGGGLVQAGGSHRLSCPASGRIFRANAMGWYRQAPGKERELLAAITRSGGSTYYADSVKGRFTISRDNAKNTVYLHMISLKPEDTAVYYWNARTRFDDGYDYWGQGTQVTVSS | high polyreactivity |
| QVQLVESGGGLVQAGGSLRLSCAASGWYRQAPGKERELVAAITYSGGSTYYADSVKGRFTISRDNAKNTVYLQMNSLKPEDTAVYYCAKQGLWIFVVVEMDYWGQGTQVTVSS | low polyreactivity |
| QVQLVESGGGLVQAGGSLRLSCAASGGIFSRYAIGWYRQAPGKEREFVAAISFSGASTYYADSVKGRFTISRDNAKNTVYLQMNSLKPEDTAVYYCAADRVWPYYQYDYWGQGTQVTVSS | low polyreactivity |
| QVQLVESGGGLVQAGGSLRLSCAATGRIFYYYTMGWYRQAPGKERELVAAISWGGVNTDYADSVKGRFTISRDNAKNTVYLQMNSLKPEDTAVYYCAAGRWSVGTYDYWGQGTQVTVSS | low polyreactivity |
| QVQLGESGGGLVQAGGSLRLSCAASGIIFISYDMGWYRQAPWKERELVARINWDGGSTYYADSVKGRFTISRDNAKNTVYLQMNSLKPEDTAVYYCAAGFVGTNYPLQGFSYEYWGQGTQVTVSS | low polyreactivity |
| PVQLVESGGGLVQAGGSLRLSCAASGFTFPNYAMGWYRQAPGKERELVAVITYSGGSTYYADTVKGRFTISRDNAKNTVYLQMNRLKPEDTAVYYCNARYPGSWYFGQYGGYDYGYWGQGTQVTVSS | low polyreactivity |
| QVQLVESGGGLVQAGGSLRLSCAASGSNFVRNTMGWYRQAPGKESELVATISSGGRTNYADSVKGRFTISRDNAKNTVYLQLNSLKPEDTAVYYCNRPRWYGGSPYYYWGQGTQVTVSS | high polyreactivity |
| QVQLVESGGGLVQAGGSLRLSCAASGSIISRNAMGWYRQAPGKERELVAAITSSGDSTYYADSVKGRFTISRDNAKNTVYLQMNSLKPEDTAVYYCNARAYRRKRYDYWGQGTQVTVSS | high polyreactivity |
| QDQLVESRGVLVQAGGTLRLSCAASGSTFVYYVMGWYRQAPVKERELVAAISWSDDSTYYADSVKGRFTISRDNAKNTVYLQMNSLIPVDTAVYYCAATGYPFYTSGDIEYYYWGQGTQVTVSS | low polyreactivity |
| QVQLVESGGGLVQAGGSLRLTCAASGRTFYVNAMGWYRQAPGKEREFVAAISRRGGSTYYADSVKGRFTISRDNAKNTVYLQMNCLKPEDTAVYYCNAAYSSRYDYWGQGTQVTVSS | high polyreactivity |
| QVQLVESGGGLVQAGGSLRLSCAASGGIFGSYTMGWYRQAPGKERELVAGISDSGGSTYYADSVKGRFTISRDNAKNIVYLQMNSLKPEDTAVYYCAAVEAYGQEYDYWGQGTQVTVSS | low polyreactivity |
| QVQLVESAGGLVQAGGSLRLSCAASGSTFYAYVMGWYRPAPGKARELVAAISKGGGSTYYADSVKGRFTISRDNAKNTVYLQMNSLKPEDTAVYYCAAYASYSNYRKYNYWGQGTQVTVSS | high polyreactivity |
